This is an account of results in US11866736B2, “Protein prostheses for mitochondrial diseases or conditions” (The General Hospital Corporation, priority 2015, dated 2024).

Residue numbers refer to the chain shown, from its start. Names and notes keep the numbering of the source.

A short description of data set [1]: Continuous assay of H2O2 production (Amplex Red/HRP/SOD). Type of data set: biochemical. As for the experimental part:
Reaction mixture contained: 50 mM NaPi pH 7.5, 150 mM NaCl buffer, 350 μM NADH, SOD 130U and 100 μM D-glucose at 37° C. At times indicated LbNOX and glucose oxidase were added. Glucose oxidase was used to validate the assay, since this enzyme produces H2O2 from oxygen and D-glucose. Rates on H2O2-forming activity of LbNOX were compared to rates of NADH disappearance in parallel experiments. It was estimated that around 1.7±0.3% of H2O2 is produced by LbNOX (n=4).
H2O2 production was monitored in a continuous assay followed by the increase in absorbance at 570 nm upon resorufin formation (ε570=54 mM^−1 cm^−1). It was shown previously that presence of NADH in the assay mixture results in the oxidation of AMPLEX® Red dye in the HRP-dependent manner and this process is greatly diminished by supplementation of superoxide dismutase (SOD) (Votyakova, et al., Arch. Biochem. Biophys., 431:138, 2004). […] The reaction was preincubated at 37° C. for 3 min before LbNOX was added (0.15 μg) and subsequently after LbNOX-dependent rate of H2O2 production was recorded, 4 U of glucose oxidase (Sigma, G2133-10 KU) was added (FIG. 6). […] H2O2-forming activity of LbNOX was compared to the total NADH oxidase activity which was determined in a parallel experiment when the decrease of NADH absorbance at 340 nm was monitored under identical conditions.

A short description of data set [2]: Enzyme-monitored turnover (stopped flow, FAD absorbance at 455 nm). Type of data set: biochemical. The protocol:
The experiment was carried out by monitoring the time dependence of FAD oxidation state via its absorbance at 455 nm in 50 mM NaPi pH7.5 150 mM NaCl buffer at 4° C. Air-saturated LbNOX (1.9, 2.9, 5.6 and 9.18 μM FAD active sites after mixing) and air-saturated solution of NADH (2 mM after mixing). The traces at 455 nm are treated as records of the rate of catalysis as a continuous function of the concentration of O2 (the limiting substrate).
The reaction of LbNOX with oxygen was studied by the enzyme-monitored turnover method (Gibson, et al., J. Biol. Chem., 239:3927, 1964; and Tapley, et al., J. Biol. Chem., 282:10263, 2007). Rapid reaction studies were carried out at 4° C. in a SX20 stopped flow instrument (Applied Photophysics, UK) equipped with a diode array detector. To follow the redox state of the FAD cofactor, LbNOX enzyme (1.9, 2.9, 5.6 and 9.18 μM FAD active sites after mixing) was mixed with NADH (2 mM after mixing), both prepared in air-saturated assay buffer (50 mM Na2HPO4, pH 7.5, 150 mM NaCl) and absorbance at 455 nm was monitored over time. Solubility of oxygen at 4° C. was calculated from oxygen solubility table at corresponding salinity of the assay buffer which is ˜380 μM. Results represent (n=3) independent experiments. The traces at 455 nm reflect the conversion of oxidized to reduced enzyme forms and are treated as previously described (Gibson, et al., J. Biol. Chem., 239:3927, 1964), where the area under the curve is proportional to the concentration of oxygen which is a limiting substrate under these conditions. […] We therefore estimated that apparent KM for O2 to be less than 2 μM. Based on the enzyme concentration (1.9-9.18 μM) and time it took to consume O2 (8.12-1.67 sec), apparent kcat can be calculated (FIG. 7).

Data set [3] relates to HeLa Tet3G cells. Put plainly: Glucose concentration-dependent cell survival. Type of data set: cell-based, human. The protocol:
Images of 96-well plates with fixed cells stained with Hoechst 33345 were collected using Molecular Devices IMAGEXPRESS® Micro XLS. Four images were taken to cover the whole well. Images were analyzed and nuclei number per well was counted using CellProfiler 2.0 image analysis software (Carpenter, et al., Genome Biol., 7:R100, 2006; and Kamentsky, et al., Bioinformatics, 27:1179, 2011).
Ten thousand HeLa Tet3G NDI1, Luciferase, LbNOX or mitoLbNOX cells were seeded in 200 μl of DMEM (DMEM (US Biological, D9800), 3.7 g/L NaHCO3, 10% dialyzed FBS (Life Technologies, 26400-044)) per well of a black 96-well plate with clear bottom (Corning, 3904). Twenty four hours after seeding, 10 μl of 6 μg/ml doxycycline (300 ng/ml final concentration) or water was added to each well. Twenty four hours after addition of doxycycline, media was exchanged to DMEM (DMEM (US Biological, D9800), 3.7 g/L NaHCO3, 10% dialyzed FBS (Life Technologies, 26400-044))±300 ng/ml doxycycline. […] After 24 hours, media was aspirated and cells were fixed by adding 100 μl of 4% paraformaldehyde in PBS and incubating at room temperature for at least 30 min. Paraformaldehyde solution was aspirated and cells were stained with 200 μl of 1 μg/ml Hoechst 33345. Plates were covered with sealing aluminum foil and stored at 4° C. before counting cells in each well with Molecular Dynamics IMAGEXPRESS® Ultra (see “Nuclei counting using Molecular Devices IMAGEXPRESS® Ultra,” above).

The subject of data set [4] is HeLa cells. In words: Tolerability of doxycycline-inducible expression in HeLa cells. Type of data set: cell-based, human. An excerpt:
Lentiviral infection was used to generate HeLa cells that expressed untargeted or mitochondria-targeted TPNOX (referred to as TPNOX and mitoTPNOX, respectively) under the control of a doxycycline-inducible promoter (TRE3G) (FIG. 16A).

B1: LbNOX: water-forming NADH oxidase endogenous to Lactobacillus brevis; tested with C-terminal FLAG tag (protein, listed as Lactobacillus brevis)
chain: KVTVVGCTHAGTFAIKQILAEHPDAEVTVYERNDVISFLSCGIALYLGGKVADPQGLFYSSPEELQKLGANVQMNHNVLAIDPDQKTVTVEDLTNHAQTTESYDKLVMTSGSWPIVPKIPGIDSDRVKLCKNWAHAQALIEDAKEAKRITVIGAGYIGAELAEAYSTTGHDVTLIDAMARVMPKYFDADFTDVIEQDYRDHGVQLALGETVESFTDSATGLTIKTDKNSYETDLAILCIGFRPNTDLLKGKVDMAPNGAIITDDYMRSSNPDIFAAGDSAAVHYNPTHQNAYIPLATNAVRQGILVGKNLVKPTVKYMGTQSSSGLALYDRTIVSTGLTLAAAKQQGLNAEQVIVEDNYRPEFMPSTEPVLMSLVFDPDTHRILGGALMSKYDVSQSANTLSVCIQNENTIDDLAMVDMLFQPNFDRPFNYLNILAQAAQAKVAQSVNA
modifications: C-terminal FLAG tag
Turning to B1, the “H2O2 relative to H2O production during catalytic cycle” value in data set [1] is listed as 1-2 % by mole. The “H2O2 produced (H2O2-forming rate compared to rate of NADH disappearance)” value in data set [1] (350 μM NADH, 37° C., n=4) is reported as “around 1.7±0.3%”. Besides, in data set [2], the “apparent KM for O2, fold lower than the concentration of oxygen in human venous blood” value is listed as “more than 10 fold”. Moreover, the “apparent KM for O2 expressed as % O2” value in data set [2] (estimated from enzyme-monitored turnover) is reported as approximately 0.17 % O2. The Km in data set [2] (estimated from enzyme-monitored turnover, 4° C., read-out: apparent KM for O2) was less than 2 µM. Moreover, the “effect on decrease in cell number (cell survival) at low glucose concentrations in the presence of piericidin” value in data set [3] (1 μM piericidin, 24 hours) was “no effect”. The “effect on decrease in cell number (cell survival) at low glucose concentrations in the presence of antimycin” value in data set [3] (antimycin) is “no effect”.

B2: TPNOX: NADPH-specific quintuple mutant (G159A/D177A/A178R/M179S/P184R) of LbNOX (protein)
chain: B1 chain with G158A, D176A, A177R, M178S, P183R
Regarding B2, the “tolerability of expression (cell morphology, viability, proliferation)” value in data set [4] is “safely tolerated”.
